Laboratory results from article PMC3814370, “Functional assignment of KEOPS/EKC complex subunits in the biosynthesis of the universal t^6A tRNA modification” (Nucleic Acids Research, 2013).

B1: Bud32–Cgi121 binary complex from Pyrococcus abyssi (complex)
chain 1: MKLIKQGAEAKIYLAEFSELYFDYPIKVIVKERIKKRYRIPEIDLKLRKERTIREARILRRAKEFGVNVPYVFEVDTKNMIIVMEYIEGERLKELLEKLPMEERLKVCREVGRQIGKLHEAGIVHGDLTTSNMILREGKVYFIDFGLAEFDDTIEAQGVDLHLLKRAMESTHYKWFERGFEEVLKGYIEIRGEDKGREIREKIREIELRGRYRERSWITQ
chain 2: MTPKFKNFKHDNSGQVETYLFEVISKYTMLEIKTKFGKLCIAKVKLASESIERALNLCNDNCQIVSAKCHEEVIFATILAIKAFSSGRNTAKTIKGEILLRLAGVKQIKDAIKIIGARKGENLIIYFGVSDPCSSLKDFISSLGLREEPLKPCDEDEVKRGFERAAIIEAL
B2: Pcc1–Kae1 binary complex from Pyrococcus abyssi (complex)
chain 1: MKPKRVQGKIVIEFPSEDIAEVVYTSVLYEHVSVPYRRSRVNFRREGRRIVLEIEANDSSAMRGTVNSYLRWIKVALDVLNI
chain 2: MLALGIEGTAHTLGIGIVSEDKVLANVFDTLTTEKGGIHPKEAAEHHARLMKPLLRKALSEAGVSLDDIDVIAFSQGPGLGPALRVVATAARALAVKYRKPIVGVNHCIAHVEITKMFGVKDPVGLYVSGGNTQVLALEGGRYRVFGETLDIGIGNAIDVFARELGLGFPGGPKVEKLAEKGEKYIELPYAVKGMDLSFSGLLTEAIRKYRSGKYRVEDLAYSFQETAFAALVEVTERAVAHTEKDEVVLVGGVAANNRLREMLRIMTEDRGIKFFVPPYDLCRDNGAMIAYTGLRMYKAGISFRLEETIVKQKFRTDEVEIVW
notes: Pcc1, Pyrococcus abyssi; Kae1, Pyrococcus abyssi; Written as the unit of one Pcc1 and one Kae1 (predicted 45 kDa); Its dimerisation is a row of the complex with itself; also called PK; Kae1–Pcc1; source: E. coli Rosetta2 (DE3) pLysS, co-expressed, purified (heat 65°C, Ni-NTA, Superdex 200)

What was measured:
[1] = target: B2; experiment: cell-based or functional assay
[2] = target: the molecule itself; experiment: SEC; gel filtration of purified proteins and complexes on Superdex 200 in storage buffer (LBs); apparent molecular mass (Supplementary Figure S2)

| Binder | t^6A synthesis (14C-L-threonine incorporated into tRNA) by an equimolar mix of the two binary complexes, relative to PaKEOPS [1] [%] | stoichiometry N [2] |
| --- | --- | --- |
| B1 | ~80 |  |
| B2 |  | 2 |
